Twelve molecules from patent publication US20250197490A1 (HBM ALPHA THERAPEUTICS, published 2025) can be followed below.

Read-outs that look alike come from different tables or passages of the source.

Experiment [1] concerns the target T1, corticotropin-releasing hormone (CRH) peptide (human and mouse, UniProt P01143 145-185 (rat entry), not fully specified).
T1 peptide: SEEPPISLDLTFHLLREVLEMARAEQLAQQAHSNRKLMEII
Nature of the experiment: cell-based or functional assay.

The target of experiment [2] is T2, biotinylated CRH (human and mouse, UniProt P01143 145-185 (rat entry), not fully specified; biotin; which end is not stated for the result (NT-biotin and CT-biotin forms were used)).
T2 construct: also called biotin-CRH; CRH (NT biotin)
T2 peptide: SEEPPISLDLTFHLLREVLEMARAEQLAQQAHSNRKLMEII
As to the kind of experiment: ELISA, CRH (NT biotin). On the procedure:
(§1) Streptavidin (Thermo, Cat: 21125) was diluted in PBS to a concentration of 2 μg/ml. 100 μl of diluted streptavidin was added per well to ELISA microplates, and the plates were incubated overnight at 4° C. […] Subsequently, plates were washed and incubated with HRP-conjugated goat anti-human IgG (H+L) antibody (Jackson, Cat: 109-035-088) at 37° C. for 1 hour. 100 μL of 3,3′,5,5′-tetramethylbenzidine (TMB) substrate (Biopanda, Cat: TMB-S-003) was added, and the plates were incubated at room temperature for 15 minutes. 100 μL of ELISA stopping solution (Solarbio, Cat #: C1058) was added to terminate the reaction, and the optical density at 450 nm (OD450 nm) was determined by an ELISA plate reader (Molecular Devices, Spectra max 384 plus).

Experiment [3] deals with T2, biotinylated CRH. Nature of the experiment: ELISA, CRH (CT biotin). The method, then:
as §1
Background: ELISA stands for enzyme-linked immunosorbent assay.

Experiment [4] concerns the target T3, human UCN1 peptide, biotinylated (human, UniProt P55089 83-122, biotin at N- or C-terminus).
T3 construct: also called hUCN1 (NT Biotin); hUCN1 (CT Biotin)
T3 peptide (looked up): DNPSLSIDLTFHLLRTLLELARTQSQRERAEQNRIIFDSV
As to the kind of experiment: ELISA, hUCN1 (NT biotin). On the procedure: as §1

The target in experiment [5] is T4, N-Terminal CRH peptide (N-terminal region plus central region, CT biotin) (human and mouse, C-terminal K-Biotin).
T4 construct: also called N-Ter-CRH
T4 peptide: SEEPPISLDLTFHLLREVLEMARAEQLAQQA
As to the kind of experiment: ELISA, N-Ter-CRH (CT-biotin) on streptavidin. On the procedure: as §1

For experiment [6], the target named is T5, human UCN2 peptide, biotinylated (human, UniProt Q96RP3 72-109, limits assumed, biotin at N- or C-terminus).
T5 construct: also called hUCN2 (NT Biotin); hUCN2 (CT Biotin)
T5 peptide (looked up): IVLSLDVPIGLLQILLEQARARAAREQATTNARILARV
As to the kind of experiment: ELISA, hUCN2 (NT biotin) and (CT biotin). On the procedure: (§2) Streptavidin (Thermo, Cat: 21125) was diluted in PBS with a concentration of 2 μg/mL. 100 μL of diluted streptavidin was added per well to ELISA microplates, and the plates were incubated overnight at 4° C. Plates were blocked with ELISA blocking solution (containing 2% w/v BSA, 0.05% (v/v) Tween-20, pH 7.4 PBS buffer) at 37° C. for 1 hour, and then incubated with either 1 μg/mL hUCN1 (NT Biotin), hUCN1 (CT Biotin), hUCN2 (NT Biotin), hUCN2 (CT Biotin), hUCN3 (NT Biotin), or hUCN3 (CT Biotin) for 1 hour at 37° C. […] Plates were subsequently washed and incubated with HRP-conjugated goat anti-human IgG (H+L) antibody (Jackson, Cat: 109-035-088) at 37° C. for 1 hour. 100 μl of TMB Substrate (Biopanda, Cat: TMB-S-003) was added, and the plates were incubated at room temperature for 15 minutes. 100 μL of ELISA stopping solution (Solarbio, Cat #: C1058) was then added to terminate the reaction, and the OD450 nm was determined by an ELISA plate reader (Molecular Devices, Spectra max 384 plus).

Experiment [7] deals with T6, human UCN3 peptide, biotinylated (human, UniProt Q969E3 120-157, biotin at N- or C-terminus).
T6 construct: also called hUCN3 (NT Biotin); hUCN3 (CT Biotin)
T6 peptide (looked up): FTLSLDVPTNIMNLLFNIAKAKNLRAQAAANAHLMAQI
Nature of the experiment: ELISA, hUCN3 (NT biotin) and (CT biotin). The method, then: as §2

Experiment [8] addresses T7, CRH (Central Region, NT Biotin) (N-terminal Biotin-K; C-terminal NH2).
T7 construct: also called Central CRH
T7 peptide: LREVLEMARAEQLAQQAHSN
As to the kind of experiment: ELISA, CRH central region peptide (NT biotin). On the procedure: as §1

The target of experiment [9] is T8, CRH (Central Region, CT Biotin) (C-terminal K-Biotin).
T8 construct: also called Central CRH
T8 peptide: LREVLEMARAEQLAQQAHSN
Nature of the experiment: ELISA, CRH central region peptide (CT biotin). On the procedure:
as §1

Experiment [10] deals with T9, CRH (C-Terminal Region, NT Biotin) (N-terminal Biotin-K; C-terminal NH2).
T9 construct: central region plus C-terminal region of CRH; also called C-Terminal CRH; C-Ter-CRH
T9 peptide: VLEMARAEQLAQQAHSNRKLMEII
Nature of the experiment: ELISA, CRH C-terminal region peptide (NT biotin). On the procedure: as §1

The target in experiment [11] is T2, biotinylated CRH. As to the kind of experiment: ELISA, CRH (NT biotin). The method, then:
as §1
These potential PTMs were mutated individually either in HCDR2 alone, in LCDR1 alone, or in various combinations of mutations, as detailed in Table 3. […] Most ΔPTM variants retained functional activities.

Experiment [12] deals with T2, biotinylated CRH. Nature of the experiment: ELISA, CRH (NT biotin).

B1: PR302309-18 (antibody, human IgG1, kappa, V domains shown)
VH: QVQLVQSGAEVKKPGASVKVSCKASGYTFTNYGMNWVRQAPGQRLEWMGWINTYTGEPIYTDDFKGRVTITRDTSASTAYMELSSLRSEDTAVYYCARSTMITTGGVFAYWGQGTLVTVSS
VL: DVVMTQSPLSLPVTLGQPASISCRSSQTIVHSDGNTYLEWYQQRPGQSPRLLIYKVSNRFSGVPDRFSGSGSGTDFTLKISRVEAEDLGVYYCFQGSHVPWTFGGGTKVEIKR
In the case of B1, in [1], the “hCRHR1-Luc 0.5 nM CRH IC50” value was 1.73 nM. Besides, the 50% effective concentration (EC50 (read off the curve)) (as a rule, the concentration giving half of the maximal effect) in the experiment with biotinylated CRH [2] was around 0.03 nM; in the experiment with biotinylated CRH [3], around 0.03 nM; in experiment [4] it was around 0.1 nM. The EC50 (as a rule, the concentration that produces a half-maximal response) in [5] came to 0.028 nM. For the same molecule, the binding result in experiment [6], in [7], in experiment [8], in experiment [9] and in experiment [10] was “no binding (tested: 100 nM)” in each case.

B2: PR006151 (antibody, human IgG1, kappa, V domains shown)
VH: EVQLVESGGVLVQPGGSLRLSCAASGFTFSSYWMTWVRQAPGKGLEWVANIKQDSSEKYYVDSVKGRFTISRDNAKNSLFLQMNSLRAEDTAVYYCARTLIFDYWGQGTLVTVSS
VL: DIVMTQSPLSLPVTPGEPASISCRSSQSLLHSTGYHSLEWYLQKPGQSPQLLIYLGSNRASGVPDRFSGSGSGTDFTLKISRVEAEDVGIYYCMQTLQTPITFGQGTRLEIKR
For B2, the binding result with biotinylated CRH [11] is on record as “binds”.

B3: PR006153 (antibody, human IgG1, kappa, V domains shown)
VH: EVQLVESGGVLVQPGGSLRLSCAASGFTFSSYWMTWVRQAPGKGLEWVANIKQDSSEKYYVDSVKGRFTISRDNAKNSLFLQMNSLRAEDTAVYYCARTLIFDYWGQGTLVTVSS
VL: DIVMTQSPLSLPVTPGEPASISCRSSQSLLHSTGYSSLEWYLQKPGQSPQLLIYLGSNRASGVPDRFSGSGSGTDFTLKISRVEAEDVGIYYCMQTLQTPITFGQGTRLEIKR
For the molecule B3, the binding result with biotinylated CRH [11] is on record as “binds”.

B4: PR006152 (antibody, human IgG1, kappa, V domains shown)
VH: EVQLVESGGVLVQPGGSLRLSCAASGFTFSSYWMTWVRQAPGKGLEWVANIKQDSSEKYYVDSVKGRFTISRDNAKNSLFLQMNSLRAEDTAVYYCARTLIFDYWGQGTLVTVSS
VL: DIVMTQSPLSLPVTPGEPASISCRSSQSLLHSTGYNPLEWYLQKPGQSPQLLIYLGSNRASGVPDRFSGSGSGTDFTLKISRVEAEDVGIYYCMQTLQTPITFGQGTRLEIKR
Take B4: the binding result with biotinylated CRH [11] is “binds”.

B5: PR302335 (antibody, human IgG1, kappa, V domains shown)
VH: DVQLVESGGGLVQPGGSRKLSCAASGFTFSSFGMHWVRQAPEKGLEWVAYISSGSTIFYYADTVKGRFTISRDNPKNTLFLQMTSLRSEDTAMYYCARDITTATFAFWGQGTLVTVSA
VL: DVVLTQTPLSLPVSLGDQVSISCRSSQNLLHNNGNTYLHWYLQKPGQSPRLLIYKVSNRFSGVPDRFSGSGSGTDFTLKITRVEAEDLGVYFCSQSTHIPWTFGGGTKLEIKR
B5: the binding result in the experiment with biotinylated CRH [12] is “binds”.

B6: PR302324 (antibody, human IgG1, kappa, V domains shown)
VH: EVQLQQSGPELVKPGASVKMSCKASGYTFTDYFMKWVKQSHGGSLEWIGVISPNNGDTFYNQKFKGKATLTVDKSSSTAFMQLNSLTSEDSAVYSCARGTDRALFAYWGQGTLVTVSA
VL: DVLMTQTPLSLPVSLGDQASISCRSSQSIVHSDGNTYLEWYLQRPGQSPKLLIYKVSNRFSGVPDRFSGSGSGTDFTLKISRVGAEDLGVYYCFQGSHIPWTFGGGTKLEVKR
Take B6: the binding result with biotinylated CRH [12] is “binds”.

B7: PR302312 (antibody, human IgG1, kappa, V domains shown)
VH: EVQLQQSGPELVKPGASVKMSCKASGYTFTDYFMKWMKQSHGKSLEWIGVINPNNGDTFYNQNFKGKATLTVDKSSSTAYMQLNSLTSEDSAVYYCTRGTARALFAYWGQGTLVTVSA
VL: DVLMTQTPLSLPVSLGDQASISCRSSQSIVHSDGNTYLEWYLQRPGQSPKLLIYKVSNRFSGVPDRFSGSGSGTDFTLKISRVGAEDLGVYYCFQGSHVPWTFGGGTKLEVKR
Consider B7, for which, in the experiment with biotinylated CRH [12], the binding result is listed as “binds”.

B8: PR302333 (antibody, human IgG1, kappa, V domains shown)
VH: QIQLVQSGPELKKPGETVKISCKASGYTFTNFGMNWVKQAPGKVLKWMGWINTYTGEPIYADDFKGRFAFSLETSASAAYLQINNLKNEDTATYFCSRSTMITTGGVFAYWGQGTLVTVSA
VL: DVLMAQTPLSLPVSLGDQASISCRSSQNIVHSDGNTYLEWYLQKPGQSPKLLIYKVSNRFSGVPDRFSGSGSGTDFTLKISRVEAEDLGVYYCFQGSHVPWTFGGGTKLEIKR
B8: the binding result in the experiment with biotinylated CRH [12] is given as “binds”.

B9: PR302332 (antibody, human IgG1, kappa, V domains shown)
VH: QIQLVQSGPELKKPGETVKISCKASGYTFTNFGMHWVKQAPGKVLKWMGWINTYTGEPIYAADFKGRFAFSLETSASTAYLQINNLKNEDTATYFCSRSTMITTGGVFAYWGQGTLVTVSA
VL: DVLMAQTPLSLPVSLGDQASISCRSSQSIVHSDGNTYLEWYLQKPGQSPKLLIYKVSNRFSGVPDRFSGSGSGTDFTLKISRVEAEDLGVYYCFQGSHVPWTFGGGTKLEIKR
B9: in the experiment with biotinylated CRH [12], the binding result was “binds”.

B10: PR302328 (antibody, human IgG1, kappa, V domains shown)
VH: EVKLVESGGGLVKPGGSLKLSCAASGFTFSSYAMSWVRQTPEKRLEWVASIRSGGTTYYPDSVKGRFTISRDNARNILYLQMSSLRSEDTAIYYCTRGIDWGQGTLVTVSA
VL: NIVMTQTPKFLLVSAGDRVTITCKASQSVNNDVAWYQQKPGQSPKLLIYYASNRYTGVPDRFTGSGYGTDFTFTISTVQAEDLAVYFCQQDYSSWTFGGGTKLEIKR
With B10, in the experiment with biotinylated CRH [12], the binding result was “binds”.

B11: PR302339 (antibody, human IgG1, kappa, V domains shown)
VH: EVKLVESGGGLVKPGGSLKLSCAASGFTFSSYALSWVRQTPEKRLEWVASIRSGGTTYYPDSVKGRFTISRDNARNILYLQMSSLRSEDTAIYYCTRGIDWGQGTLVTVSA
VL: NIVMTQTPKFLLVSAGDRVTITCKASQSVNNDVAWYQQKPGQSPKLLIYYASNRYTGVPDRFTGSGYGTDFTFTISTVQAEDLAVYFCQQDYSSWTFGGGTKLEIKR
Take B11: the binding result in the experiment with biotinylated CRH [12] is “binds”.

B12: PR302331 (antibody, human IgG1, kappa, V domains shown)
VH: EVKLVESGGGLVKPGGSLKLSCAASGFTFSSYAMSWVRQSPEKRLEWVASIRSGGTTYYPDSVKGRFTISRDNARNILYLQMSSLRSEDTAIYYCTRGIDWGQGTLVTVSA
VL: NIVMTQTPKFLLVSAGDRVTIACKASQSVNNDVAWYQQKPGQSPKLLIYYASNRYTGVPDRFTGSGYGTDFTFTISTVQAEDLAVYFCQQDYSSWTFGGGTKLEIKR
For B12, the binding result with biotinylated CRH [12] is “binds”.
